According to PMC7801690, “Crystal structure of a thermophilic fungal cyanase and its implications on the catalytic mechanism for bioremediation” (Scientific Reports, 2021):

How the values were obtained:
N#CO = assay: purified protein; conditions: apparent Km; 0.05 to 3.0 mM potassium cyanate; bicarbonate-dependent
From the text: cyanase activity (ammonium release), Lineweaver-Burk on Tl-Cyn

[1] = target: cyanase from the thermophilic fungus Thermomyces lanuginosus (Tl-Cyn) (Thermomyces lanuginosus); assay: crystal structure; sitting-drop vapour diffusion at 20 °C, protein 13 mg/mL; reservoir 2% Tacsimate (pH 8.0), 0.1 M Tris (pH 8.5), 16% PEG 3,350; malonate and formate bound in the active sites; 2.2 Å

| Substance | Km (N#CO) [µM] | stoichiometry N [1] |
| --- | --- | --- |
| Tl-Cyn (Thermomyces lanuginosus) | 360 ± 40 | – |
| cyanase from the thermophilic fungus Thermomyces lanuginosus (Tl-Cyn) (enzyme) | – | 10 |
